The assay deals with EEEV virus-like particles (strain PE6) (eastern equine encephalitis virus, strain PE6). As to the kind of experiment: BLI. For orientation: In BLI a coated tip is dipped into the sample, and binding shifts an interference pattern.

Consider “VLDLRLA1-Fc fusion protein (from UniProt P98155-1 31-69)”, for which the Kd (commonly a measure of binding affinity in units of concentration) was found to be 15.5 µM.
Then “VLDLRLBD-Fc fusion protein (from UniProt P98155-1 31-355)”, with 0.0021 µM.
